Assay results as given in patent publication US20250170255A1 (Daiichi Sankyo, published 2025).
Values belong to the binder of their own block, whether it stands above or below them.

Experiments:
[1] = biological target: T1, biotinylated human TROP2 antigen (human, UniProt P09758 27-274, C-terminal Avi tag sequence biotinylated); experiment: ELISA with and without uPA
T1 construct: extracellular domain
T1 sequence (looked up): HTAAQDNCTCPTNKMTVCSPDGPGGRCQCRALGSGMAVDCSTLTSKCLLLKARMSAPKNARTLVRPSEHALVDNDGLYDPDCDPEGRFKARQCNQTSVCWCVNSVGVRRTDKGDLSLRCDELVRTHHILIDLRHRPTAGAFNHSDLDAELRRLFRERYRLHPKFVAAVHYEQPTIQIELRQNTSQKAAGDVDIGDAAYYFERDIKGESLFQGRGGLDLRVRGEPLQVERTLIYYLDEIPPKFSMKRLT

[2] = biological target: T1, biotinylated human TROP2 antigen; experiment: ELISA, immobilised biotinylated human TROP2 antigen, chemiluminescence; after uPA pre-treatment (mask linker cleaved)
Experimental: (§1) NeutrAvidin (Thermo Fisher Scientific) diluted to 1 μg/ml with PBS was added at 50 μl/well to a 96-well Maxi-sorp plate (Black, Nunc) and immobilized at 4° C. overnight. The plate was washed with PBS containing 0.05% (w/v) Tween-20 (BioRad) (ELISA buffer) and then blocked with Blocker Casein (Thermo Fisher Scientific). The plate was washed with ELISA buffer, the biotinylated human TROP2 antigen (Accession Number: P09758; the extracellular domain was purified by the method known to a person skilled in the art and the C-terminal Avi tag sequence was then biotinylated) diluted to 1 μg/ml with PBS was added at 50 μl/well, and the resultant was then agitated for 30 minutes at room temperature. […] The plate was washed with ELISA buffer, 50 μl of the horseradish peroxidase (HRP)-labeled anti-human IgG antibody (Jackson Immuno Research Laboratories) diluted to 2,500-fold with ELISA buffer was added, and the resultant was then agitated for 30 minutes at room temperature. The plate was washed with ELISA buffer, the SuperSignal Pico ELISA chemiluminescent substrate (Thermo Fisher Scientific) was added, and chemiluminescence 10 minutes thereafter was then assayed using a plate reader.

[3] = biological target: T1, biotinylated human TROP2 antigen; experiment: ELISA, immobilised biotinylated human TROP2 antigen, chemiluminescence; without uPA
Experimental: as §1

[4] = biological target: T1, biotinylated human TROP2 antigen; experiment: ELISA, immobilised biotinylated human TROP2 antigen, chemiluminescence; pH 7.5
Experimental: (§2) The plate was washed with PBS containing 0.05% (w/v) Tween-20 (BioRad) (ELISA buffer) and then blocked with Blocker Casein (Thermo Fisher Scientific). The plate was washed with ELISA buffer, the biotinylated human TROP2 antigen (Accession Number: P09758; the extracellular domain was purified by the method known to a person skilled in the art and the C-terminal Avi tag sequence was then biotinylated) diluted to 1 μg/ml with PBS was added at 50 μl/well, and the resultant was then agitated for 30 minutes at room temperature. […] The plate was washed with ELISA buffer, 50 μl of the horseradish peroxidase (HRP)-labeled anti-human IgG antibody (Jackson Immuno Research Laboratories) diluted to 2,500-fold with ELISA buffer was added, and the resultant was then agitated for 30 minutes at room temperature. The plate was washed with ELISA buffer, the SuperSignal Pico ELISA chemiluminescent substrate (Thermo Fisher Scientific) was added, and chemiluminescence 10 minutes thereafter was then assayed using a plate reader. […]

[5] = biological target: T1, biotinylated human TROP2 antigen; experiment: ELISA, immobilised biotinylated human TROP2 antigen, chemiluminescence; pH 6.5
[6] = biological target: T1, biotinylated human TROP2 antigen; experiment: ELISA pH 7.5 against pH 5.5
[7] = biological target: T1, biotinylated human TROP2 antigen; experiment: ELISA, immobilised biotinylated human TROP2 antigen, chemiluminescence; pH 7.5; remark: listed apart in the source
[8] = biological target: T1, biotinylated human TROP2 antigen; experiment: ELISA, immobilised biotinylated human TROP2 antigen, chemiluminescence; pH 5.5
Experimental: as §2

[9] = biological target: T1, biotinylated human TROP2 antigen; experiment: ELISA, immobilised biotinylated human TROP2 antigen, chemiluminescence; pH 7.5; remark: listed apart in the source
[10] = biological target: T1, biotinylated human TROP2 antigen; experiment: as above; remark: listed apart in the source
[11] = biological target: T1, biotinylated human TROP2 antigen; experiment: ELISA, immobilised biotinylated human TROP2 antigen, chemiluminescence; pH 5.5; remark: listed apart in the source
Experimental: as §2

[12] = biological target: T1, biotinylated human TROP2 antigen; experiment: ELISA, immobilised biotinylated human TROP2 antigen, chemiluminescence; pH 6.0
[13] = biological target: T1, biotinylated human TROP2 antigen; experiment: ELISA, immobilised biotinylated human TROP2 antigen, chemiluminescence; pH 7.5; remark: listed apart in the source
Experimental: as §2

[14] = biological target: T1, biotinylated human TROP2 antigen; experiment: ELISA, immobilised biotinylated human TROP2 antigen, chemiluminescence; pH 5.5; remark: listed apart in the source
[15] = biological target: T1, biotinylated human TROP2 antigen; experiment: as above; remark: listed apart in the source
[16] = biological target: T1, biotinylated human TROP2 antigen; experiment: ELISA, immobilised biotinylated human TROP2 antigen, chemiluminescence; pH 7.5; remark: listed apart in the source
[17] = biological target: T1, biotinylated human TROP2 antigen; experiment: ELISA, immobilised biotinylated human TROP2 antigen, chemiluminescence; after MMP1 pre-treatment (mask linker cleaved)
[18] = biological target: T1, biotinylated human TROP2 antigen; experiment: ELISA with and without MMP1
[19] = biological target: T1, biotinylated human TROP2 antigen; experiment: ELISA, immobilised biotinylated human TROP2 antigen, anti-FLAG-HRP detection; after MMP1 pre-treatment
Experimental: (§3) NeutrAvidin (Thermo Fisher Scientific) diluted to 1 μg/ml with PBS was added at 50 μl/well to a 96-well Maxi-sorp plate (Black, Nunc) and immobilized at 4° C. overnight. The plate was washed with PBS containing 0.05% (w/v) Tween-20 (BioRad) (ELISA buffer) and then blocked with Blocker Casein (Thermo Fisher Scientific). The plate was washed with ELISA buffer, the biotinylated human TROP2 antigen (Accession Number: P09758; the extracellular domain was purified by the method known to a person skilled in the art and the C-terminal Avi tag sequence was then biotinylated) diluted to 1 μg/ml with PBS was added at 50 μl/well, and the resultant was then agitated for 30 minutes at room temperature. […] The plate was washed with ELISA buffer, the SuperSignal Pico ELISA chemiluminescent substrate (Thermo Fisher Scientific) was added, and chemiluminescence 10 minutes thereafter was then assayed using a plate reader.
(§4) The resultant was then added to the plate comprising the human TROP2 antigen immobilized thereon at 50 μl/well. The bound scFv was detected using the HRP-labeled anti-FLAG antibody (Sigma-Aldrich) diluted to 5,000-fold with ELISA buffer.

[20] = biological target: T1, biotinylated human TROP2 antigen; experiment: ELISA, immobilised biotinylated human TROP2 antigen, anti-FLAG-HRP detection; without MMP1
Experimental: as §3, §4

[21] = biological target: T1, biotinylated human TROP2 antigen; experiment: as above; remark: listed apart in the source
Experimental: as §3, §4

[22] = biological target: T1, biotinylated human TROP2 antigen; experiment: ELISA, immobilised biotinylated human TROP2 antigen, anti-FLAG-HRP detection; after MMP1 pre-treatment; remark: listed apart in the source
Experimental: as §3, §4

B1: anti-TROP2 masked antibody MHT1009 (antibody)
heavy: not shown
light: DIQMTQSPSSLSASVGDRVTITCKASQDVSTAVAWYQQKPGKAPKLLIYSASYRYTGVPSRFSGSGSGTDFTLTISSLQPEDFAVYYCQQHYITPLTFGQGTKLEIKRTVAAPSVFIFPPSDEQLKSGTASVVCLLNNFYPREAKVQWKVDNALQSGNSQESVTEQDSKDSTYSLSSTLTLSKADYEKHKVYACEVTHQGLSSPVTKSFNRGEC
notes: Full-length entries
- EC50 ratio of binding intensity (without uPA / with uPA) [1]: 83
- EC50 (read off the curve) [2]: ~1 nM
- EC50 (read off the curve) [3]: ~90 nM

B2: anti-TROP2 masked antibody MHT1806 (antibody, human IgG1, kappa)
heavy: not shown
light: DIQMTQSPSSLSASVGDRVTITCKASQDVSTAVAWYQQKPGKAPKLLIYSASYRYTGVPSRFSGSGSGTDFTLTISSLQPEDFAVYYCQQHYITPLTFGQGTKLEIKRTVAAPSVFIFPPSDEQLKSGTASVVCLLNNFYPREAKVQWKVDNALQSGNSQESVTEQDSKDSTYSLSSTLTLSKADYEKHKVYACEVTHQGLSSPVTKSFNRGEC
- EC50 (read off the curve) [4]: ~200 nM
- EC50 (read off the curve) [5]: ~50 nM
- EC50 ratio (neutral pH conditions/acidic pH conditions) [6]: 38.8
- EC50 (read off the curve) [7]: ~200 nM

B5: HT1-11-scFv-HL (scFv)
scFv: ADVNSQVQLVQSGAEVKKPGASVKVSCKASGYTFTTAGMQWVRQAPGQGLEWMGWINTHSGVPKYAEDFKGRVTISADTSTSTAYLQLSSLKSEDTAVYYCARSGFGSSYWYFDVWGQGTLVTVSSGGGGSGGGGSGGGGSDIQMTQSPSSLSASVGDRVTITCKASQDVSTAVAWYQQKPGKAPKLLIYSASYRYTGVPSRFSGSGSGTDFTLTISSLQPEDFAVYYCQQHYITPLTFGQGTKLEIKRGAPSGDYKDDDDKGAAAHHHHHH
notes: Unmasked scFv (VH-VL) expressed in E. coli, purified by Ni Sepharose; Full-length entry
- EC50 (read off the curve) [19]: ~5 nM
- EC50 (read off the curve) [20]: ~5 nM

B6: HT1-11-scFv-LH (scFv)
scFv: ADVNSDIQMTQSPSSLSASVGDRVTITCKASQDVSTAVAWYQQKPGKAPKLLIYSASYRYTGVPSRFSGSGSGTDFTLTISSLQPEDFAVYYCQQHYITPLTFGQGTKLEIKRGGGGSGGGGSGGGGSQVQLVQSGAEVKKPGASVKVSCKASGYTFTTAGMQWVRQAPGQGLEWMGWINTHSGVPKYAEDFKGRVTISADTSTSTAYLQLSSLKSEDTAVYYCARSGFGSSYWYFDVWGQGTLVTVSSGAPSGDYKDDDDKGAAAHHHHHH
notes: Unmasked scFv (VL-VH) expressed in E. coli; Full-length entry
- EC50 (read off the curve) [21]: ~3 nM
- EC50 (read off the curve) [22]: ~3 nM

Continued, values first:

- EC50 (read off the curve) [8]: ~2 nM
- EC50 (read off the curve) [9]: ~30 nM
- EC50 (read off the curve) [10]: ~20 nM
- EC50 (read off the curve) [11]: ~1 nM
- EC50 (read off the curve) [12]: ~4 nM
- EC50 (read off the curve) [13]: ~50 nM
- EC50 (read off the curve) [14]: ~1 nM
B3: anti-TROP2 masked antibody MHT1808 (antibody)
heavy: not shown
light: DIQMTQSPSSLSASVGDRVTITCKASQDVSTAVAWYQQKPGKAPKLLIYSASYRYTGVPSRFSGSGSGTDFTLTISSLQPEDFAVYYCQQHYITPLTFGQGTKLEIKRTVAAPSVFIFPPSDEQLKSGTASVVCLLNNFYPREAKVQWKVDNALQSGNSQESVTEQDSKDSTYSLSSTLTLSKADYEKHKVYACEVTHQGLSSPVTKSFNRGEC
notes: His cluster linker; Full-length entries

- EC50 (read off the curve) [15]: ~1 nM
- EC50 (read off the curve) [16]: ~30 nM
- EC50 (read off the curve) [17]: ~0.6 nM
- EC50 ratio (neutral pH conditions/acidic pH conditions) [6]: 28.1
- EC50 ratio (without the addition of MMP1/with the addition of MMP1) [18]: 48.4
B4: anti-TROP2 masked antibody MHT1811 (antibody)
heavy: not shown
light: DIQMTQSPSSLSASVGDRVTITCKASQDVSTAVAWYQQKPGKAPKLLIYSASYRYTGVPSRFSGSGSGTDFTLTISSLQPEDFAVYYCQQHYITPLTFGQGTKLEIKRTVAAPSVFIFPPSDEQLKSGTASVVCLLNNFYPREAKVQWKVDNALQSGNSQESVTEQDSKDSTYSLSSTLTLSKADYEKHKVYACEVTHQGLSSPVTKSFNRGEC
notes: Full-length entries
